Experimental data from the nanobody polyreactivity screen of Harvey et al. (2022).

Assay: yeast display, Sf9 membrane polyspecificity reagent, FACS + sequencing; frameworks hold sequencing errors
Method in brief: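 After 36–48 hours of galactose induction, yeast (Saccharomyces cerevisiae BJ5465) displaying a synthetic nanobody library were stained at 4 °C for 1 hour with 10% biotinylated, detergent-solubilized Sf9 membrane reagent. Streptavidin microbeads enriched the stained cells before FACS sorting into low and high (top ~1%) gates on anti-HA and streptavidin fluorescence. Each clone's polyreactivity label reflects its gate of origin.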

Sequence	polyreactivity (PSR sort gate)
QVQLVESGGGLVQAGGRLRLSCAASGFTFRAFTMGWYRQAPGKERELVAAITYSGGRTYYADSVKGRFTISRDNAKNTVYLQMNSLKPEDTAVYYCAKRGWALSEYYYWGQGTQVTVSS	high polyreactivity
QVQLVESGGGLVQAGGRLRLSCAASGFTFRYYAMGWSRQAPGKERELVAGISYRGTSTYYADSVKGRFTISRDNAKNTVYLQMNSLKPEDTAVYYCADEVRYDRHDYWGQGTQVTVSS	high polyreactivity
QVQLVESGGGLVQAGGRLRLSCAASGFTFYYKAMGWYRQAPGKEWELVASITWSGGRTYYADSVKGRFTISRDNAKNTVYFQMNSLKPEDTAVYYCNAGYCIGLVAYGYWGQGTQVTVSS	low polyreactivity
QVQLVESGGGLVQAGGRLRLSCAASGIIFTVYAMGWYRQAPGKERELVAAITSSGGRTYYADSVKGRFTISRDNAKNTVYLHMNSLKPEDTAVYYCAARLPGYVRKYDYWGQGTQVTVSS	high polyreactivity
QVQLVESGGGLVQAGGRLRLSCAASGITFDLYAMGWYSQAPGKERELVAAISISSTSTYYADSVKGRFTISRDYEKNTVYLQMNSLKPEDTAVYYCNAVPSSKTFWFDYWGQGTQVTVSS	low polyreactivity
QVQLVESGGGLVQAGGRLRLSCAASGITFTFNAMGWYRQAPGKERELVAAITWSGGSTIYADSVKGRFTFSRDNAKNTVYLQMNSQKPEDTAVYNCARDTELYVRWLDYWGQGSQVTVSS	low polyreactivity
QVQLVESGGGLVQAGGRLRLSCAASGITFYVYAMGWYRQAPGKVREFVAAISTRDGTTYADSVKGRFTISRDNAKNTVYLQMNRLKPEDTAVYFCAAAYYYDGQQGDFDYWGQGTQVTVSS	low polyreactivity
QVQLVESGGGLVQAGGRLRLSCAASGLIFVWYAMGWYRQAPGKERELVAAISTSGGSTYYADSVKGRFTISRDNAKNTVYLQMNSLKPEDTAVYYCAAARRWWPQGYYWGQGTQVTVSS	high polyreactivity
QVQLVESGGGLVQAGGRLRLSCAASGLIILRYTMGWYRQAPGKERELVAVITSGGRTYYADSVKGRFTISRDNAKNTVYLQMNSLKPEDTAVYYCAASVGLRTSFTGGGYWGQGTQVTVSS	high polyreactivity
QVQLVESGGGLVQAGGRLRLSCAASGLNFYLYAMGWYTQAPGKERELVATITSAGRTNSADTVKGRFTISRDNAKNTVYLERNSLKPEYTAVYYCIRDVRFVGPSGFDYWGQGTEVTVSS	high polyreactivity
QVQLVESGGGLVQAGGRLRLSCAASGNIFKRYTMGWYRQAPGKERELVAAISGGDSTNYADSVKGRFTISRDNANNTFYLQMNSLKPEDTAVYYCAAGGLTLWHGYILGYWGQGTQVTVSS	low polyreactivity
QVQLVESGGGLVQAGGRLRLSCAASGRIFDANVMGWYRQAPGKERELVAAISSGGRTKYADSVKGRFTISRDNAKNNVYLQMNSLKPEDTAVYYCAKKHSPLYDYWGQGTQVTVSS	low polyreactivity
QVQLVESGGGLVQAGGRLRLSCAASGRIFFRNTMGWYRQEPGKERQLVAAISGSGGSKYYADSVKGRFTISRDNAKNTVYLQMNSLKPEDTAVYYCAKRWLYPISYDYWGQGTQVTVSS	high polyreactivity
QVQLVESGGGLVQAGGRLRLSCAASGRIFGVYAMGWYRQAPGKEREFVASITRGGGRTYYADSVKGRFTISRDNAKNTVYLQMNSLKPEDTAVYYCNAVVNSYPYYYWGQGTQVTVSS	high polyreactivity
QVQLVESGGGLVQAGGRLRLSCAASGRIFKSYAMGWYRQAPGKERELVATISISGGSTYYADSVKGRFTISRDNAKNTVYLQMNSLKPEDTAVYYCASDRYGLGDYDYWGQGTQVTVSS	low polyreactivity
QVQLVESGGGLVQAGGRLRLSCAASGRIFLPDGMGWYIQAAGKERELVATITIGGSSTYADSVKGRFTISRDNAKNTVNLQMNSLKPEHTAVYYCAVRRWVYYLHGYDYWGQGTQETVSS	low polyreactivity

Sequence	polyreactivity (PSR sort gate)
QVQLVESGGGLVQAGGRLRLSCAASGRIFRRYAMGWYRQAPGKERELVAAITSSGTSTHYADSVKGRFTISRDNAKNTVYLQMNSLKPEDTAVYYCAARYSTYPWYNYCGQGTQVTVSS	high polyreactivity
QVQLVESGGGLVQAGGRLRLSCAASGRIFRYNAMGWYRQAPGKERELVASITSAGSTNYADSVKGRFTISRDNAKITVYLLMNSLKPEDTEVYYCNKRRAYGYYLFDYWGQGTQVTVSS	high polyreactivity
QVQLVESGGGLVQAGGRLRLSCAASGRIFSTYAMGWYRQAPGKQRQLVAAINKSGGSTYYADSVKGRFTISRDTAKNTVYLQMNSLKPEDTAVYYCAADQSYPKRLPSFEYWGQGTQVTVSS	low polyreactivity
QVQLVESGGGLVQAGGRLRLSCAASGRIFTYYVMGWYRQAPGKERELVASISGSGGRTYYADSVKGRFTISRDNAKNTVYLQMNSLKPEDTAVYYCATRLYKRTRTITYGYWGQGTQVTVSS	high polyreactivity
QVQLVESGGGLVQAGGRLRLSCAASGRIFYNYAMGWYRQAPGKERELVAAISGSGGSTYYADSVKGRFTISRDNAKNTVYLQMNSLKPEDTAVYYCSTSGPQYYSRNFDYWGQGTQVTVSS	low polyreactivity
QVQLVESGGGLVQAGGRLRLSCAASGRIFYNYAMGWYRQAPGKERELVASINFSGTRTYYADSVKGRFTISRDYAKNHVYLQMNSLKPEDTAVYYCAARQAHGYYYWGQGTQVTVSS	high polyreactivity
QVQLVESGGGLVQAGGRLRLSCAASGRIGPNVMGWYRQPPGKERELVAAISRRGGSTYYADSVKGRFTISRDNAKNTVYLQMNSLKPEDTAVYYCAKDLYTLAVKGGDYWGQGTQVTVSS	high polyreactivity
QVQLVESGGGLVQAGGRLRLSCAASGRTFAVYDMGWYIQAPGKERELVAAITYGGGRTYYADSVKGRFTISRDYAKNTVYLQMISLKPEDTSVYYCAADYYGTDYDYWGQGTQVTVSS	low polyreactivity
QVQLVESGGGLVQAGGRLRLSCAASGRTFEGYAMAWYRQAPGKERELVAAISGSSGSTYYADSVKGRFTISRDNAKNTVYLQMNSLKPEDTAVYYCNADYDWPGGSDYWGQGTQVTVSS	low polyreactivity
QVQLVESGGGLVQAGGRLRLSCAASGRTFIPYAMGWYRQAPGNERELVAAIRNGGSTNYADSVKGRFTISRDIAKNTVYLQMNSLKPEDTAVYYCNADLPVYVDYINGCYGYWGQGTQVTVSS	low polyreactivity
QVQLVESGGGLVQAGGRLRLSCAASGRTFPGYDMGWYRQAPGKERELVAAITRSGGSTYYADSVKGRFTISRDNAKNTVYLQMNSLKPEDTAVYYCATERHFYYSTFYYWGQGTQVTVSS	high polyreactivity
QVQLVESGGGLVQAGGRLRLSCAASGRTFYYYAMGWYRQAPGKERELVASITYRGTRTNYADSVKGRFTISRDNAKNTVYLQMNILKPEDTAVYSCNAEVYTGYGYWGQGTQVTVSS	high polyreactivity
QVQLVESGGGLVQAGGRLRLSCAASGRTIDHYAMGWYRQAPGKERELVAAISTTGGSTYYADSVKGRFTISRDNAKNTVYLQMNSLKPEDTAVYYCAARGLRTGGYWGQGTQVTVSS	high polyreactivity
QVQLVESGGGLVQAGGRLRLSCAASGRTIGVYAMGWYRQAPGKERELVAAISWSGGTTYYADSVKGRFTISRDNAKNTVYLQMNSLKPEDTGVYYCAADGEYPHSEDFEYWGQGTQVTVSS	low polyreactivity
QVQLVESGGGLVQAGGRLRLSCAASGRTLGANAMGWYRQAPGKERELVAAITDSGGSTYYADSVKGRFTISRDNAKNTVYLQMNSLKPEDTAVYYCAAKQAYSSTYVWPIFDYWGQGTQVTVSS	low polyreactivity
QVQLVESGGGLVQAGGRLRLSCAASGRTLYRYVMVWYRQAPWKERELVAAISATAGSTYYADSVKGRFTISRDNAKNTVYLQMNSLTPEDTAVYYCAAEGYTLWYWLEFEYWGQGTQVTVSS	high polyreactivity
